Series [1] addresses T1, fMLF receptor on differentiated HL-60 cells (Homo sapiens, UniProt P21462).
T1 construct: endogenous in cells; host or cells: HL-60 cells differentiated with 1.3% DMSO for 48 h; whole cells
T1 sequence (P21462 1-350): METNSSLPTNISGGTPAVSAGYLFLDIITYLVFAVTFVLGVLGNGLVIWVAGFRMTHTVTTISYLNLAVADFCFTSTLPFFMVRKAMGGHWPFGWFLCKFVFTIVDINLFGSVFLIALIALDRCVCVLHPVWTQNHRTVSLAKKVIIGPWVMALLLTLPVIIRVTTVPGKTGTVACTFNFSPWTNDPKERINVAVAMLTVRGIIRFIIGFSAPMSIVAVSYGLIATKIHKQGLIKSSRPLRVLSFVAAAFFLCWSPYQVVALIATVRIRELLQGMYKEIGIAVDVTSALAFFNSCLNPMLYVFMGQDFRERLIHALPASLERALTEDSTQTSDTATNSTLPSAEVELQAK
The series is described as follows: Competitive receptor binding assay with fML[3H]F. Particulars: for Avidity Activation EC50/Kd: ratio of EC50 (calcium) to Kd.

Series [2] relates to differentiated HL-60 cells. The series is described as follows: Intracellular calcium assay (45Ca release from intracellular stores). It is filed as cell-based, human. Particulars: for EC50: differentiated HL-60 cells, calcium release, read-out: Cell Activation EC50. The procedure: Intracellular Calcium Assay. HL-60 cells (2×10^5 cells/mL) were grown in the presence of 1.3% DMSO for 5 days. For each time course experiment, 2×10^6 cells were resuspended in 5 mL of HBSS containing 2 mCi/mL of ^45CaCl2 as the sole source of calcium. After 90 min incubation at 37° C., cells were washed twice as above with cold HBSS. […] Cell pellets were treated with 0.5% Triton X-100/0.1 M NaOH and centrifuged in tubes containing 0.3 mL of 10% sucrose and radioactivity associated with the pellets was measured; this represents vesicle-associated ^45Ca. The top portion of the tube, which contained the cytoplasmic ^45Ca was also measured.
Background: Calcium assays in cells follow changes in intracellular calcium, usually with a dye or a luminescent sensor.

The target in series [3] is T2, SMVT (Homo sapiens, UniProt Q9Y289).
T2 sequence (Q9Y289 1-635): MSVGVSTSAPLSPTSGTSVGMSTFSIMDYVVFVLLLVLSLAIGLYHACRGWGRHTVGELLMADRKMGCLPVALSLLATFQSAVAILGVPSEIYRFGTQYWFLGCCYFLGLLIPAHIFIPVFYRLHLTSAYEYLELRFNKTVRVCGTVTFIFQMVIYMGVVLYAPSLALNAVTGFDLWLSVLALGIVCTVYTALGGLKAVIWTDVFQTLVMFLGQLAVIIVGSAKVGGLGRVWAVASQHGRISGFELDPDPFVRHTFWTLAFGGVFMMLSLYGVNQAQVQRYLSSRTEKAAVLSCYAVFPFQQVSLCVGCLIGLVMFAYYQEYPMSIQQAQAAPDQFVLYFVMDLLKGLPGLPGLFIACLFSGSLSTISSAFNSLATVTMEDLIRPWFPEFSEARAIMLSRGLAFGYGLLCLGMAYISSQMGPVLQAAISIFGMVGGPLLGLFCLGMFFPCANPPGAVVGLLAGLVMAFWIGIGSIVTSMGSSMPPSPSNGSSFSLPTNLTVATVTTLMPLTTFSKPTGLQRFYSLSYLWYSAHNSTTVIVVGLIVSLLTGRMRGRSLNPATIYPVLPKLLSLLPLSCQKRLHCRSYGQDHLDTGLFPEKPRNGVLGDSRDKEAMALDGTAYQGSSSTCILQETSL
The series is described as follows: Inhibition of substrate uptake in CHO/hSMVT cells by 50 μM SMVT substrates. Particulars: for inhibition of RI-K(biotin)-Tat9 uptake: 0.1 μM RI-K(biotin)-Tat9, inhibitor 50 μM; for inhibition of biotin-PEG-3400 uptake: 0.1 μM biotin-PEG-3400, inhibitor 50 μM; for inhibition of PEG:(RI-K(biotin)-Tat9)8 uptake: 0.1 μM conjugate, inhibitor 50 μM. The arrangement: expressed in transfected cells; host or cells: CHO cells (ATCC), transient Lipofectamine transfection; plasmid was a gift of Dr. Puttur D. Prasad. Format: in vitro ADME.

The target of series [4] is T3, SMVT in BBMECs (Bos taurus, UniProt A1L530).
T3 construct: endogenous in cells; host or cells: primary bovine brain microvessel endothelial cells (BBMECs)
T3 sequence (A1L530 1-638): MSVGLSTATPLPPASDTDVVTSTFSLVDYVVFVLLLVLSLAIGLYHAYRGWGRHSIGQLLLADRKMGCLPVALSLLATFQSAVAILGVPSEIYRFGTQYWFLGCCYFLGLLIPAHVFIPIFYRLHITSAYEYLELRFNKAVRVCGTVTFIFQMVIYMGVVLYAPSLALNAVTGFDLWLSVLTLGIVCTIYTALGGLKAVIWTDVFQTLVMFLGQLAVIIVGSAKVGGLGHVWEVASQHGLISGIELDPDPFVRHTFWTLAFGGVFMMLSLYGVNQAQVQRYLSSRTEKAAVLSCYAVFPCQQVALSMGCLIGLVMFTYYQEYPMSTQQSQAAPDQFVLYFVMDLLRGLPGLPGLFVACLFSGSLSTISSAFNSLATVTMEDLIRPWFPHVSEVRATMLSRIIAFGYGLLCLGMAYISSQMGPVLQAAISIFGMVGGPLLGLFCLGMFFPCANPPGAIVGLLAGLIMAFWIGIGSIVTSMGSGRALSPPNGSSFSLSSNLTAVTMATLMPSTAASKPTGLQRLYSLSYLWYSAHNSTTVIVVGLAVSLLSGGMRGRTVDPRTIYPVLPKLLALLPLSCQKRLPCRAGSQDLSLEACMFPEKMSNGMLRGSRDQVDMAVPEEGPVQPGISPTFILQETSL
The series is described as follows: Biotin uptake by BBMECs (characterization of biotin transporter). It is filed as in vitro ADME, bovine.

Series [5] is described as follows: in vitro. The conditions noted are these: human, Caco-2.
Series [6] relates to Caco-2 cell monolayers. The series is described as follows: Absorptive (AP to BL) transport across Caco-2 cell monolayers. Particulars: Caco-2 AP to BL.
Substrate in series [7]: O=C(O)CCCC[C@@H]1SC[C@@H]2NC(=O)N[C@@H]21
The series is described as follows: cells, lysate or membranes named. The conditions noted are these: 37° C.

Setting [8] is: Kd multiplied by average number of fMLF moieties, read-out: Relative Avidity Kd/fMLP.
[9] abbreviates: differentiated HL-60 cells, competition with fML[3H]F, read-out: Avidity Kd.

As usually defined, the EC50 is the concentration at which the effect is half-maximal. The term Papp A→B denotes the apparent permeability from the apical to the basolateral side of a cell layer. High values mean ready permeation, low ones poor permeation.

“Also recorded” adds a separate entry of the source. Like-named read-outs stand apart in the source and are kept apart here.

For “B8-PEG-fMLF5.5: 8-arm branched amino-PEG with on average 5.5 fMLF residues per polymer”, the Kd in series [1] (setting [8]) is 2.75 nM; in series [1] (setting [9]), 0.5 nM. Moreover, the “Avidity Activation EC50/Kd” value in series [1] was determined as 10.6. The EC50 in series [2] was determined as 5.3 nM.

On to `CC(C)(CO)[C@@H](O)C(=O)NCCC(=O)O` [pantothenic acid], for which, in series [3], the “inhibition of RI-K(biotin)-Tat9 uptake” value is “significantly inhibited”, the “inhibition of biotin-PEG-3400 uptake” value is “significantly (p<0.01) inhibited” and the “inhibition of PEG:(RI-K(biotin)-Tat9)8 uptake” value is “significantly lower (p<0.05)”. Also, in series [4], the “inhibition of biotin uptake” value is reported as “inhibited the uptake of biotin significantly”.

“B4-PEG-fMLF4: 4-arm branched amino-PEG fully coupled with fMLF”: the Kd amounted to 3.2 nM in series [1] (setting [8]) and 0.8 nM in series [1] (setting [9]). In addition, the “Avidity Activation EC50/Kd” value in series [1] is 6.25. For the same molecule, in series [2], the EC50 amounted to 5 nM.

In the case of “B8-PEG-fMLF8: 8-arm branched amino-PEG with 8 fMLF residues per polymer”, in series [1], the “increase in avidity over B8-PEG-fMLF1.1” value is “more than 1000 fold” and the “Avidity Activation EC50/Kd” value came to 27.8. Moreover, in series [1] (setting [8]), the Kd was 1.44 nM. In addition, the fMLF receptors occupied in series [1] (at 1 nM) is reported as ~100%. For the same molecule, the Kd in series [1] (setting [9]) was determined as 0.18 nM. Moreover, the cellular activation result in series [2] (at 1 nM) is reported as “little or no cellular activation”. Further, the EC50 in series [2] was 5 nM.

For the molecule “PEG/A-fMLF4: linear PEG-aspartate copolymer (29 kDa) with four fMLF residues”, the Kd is 4.4 nM in series [1] (setting [8]) and 1.1 nM in series [1] (setting [9]).

Regarding `N[C@@H]1[C@H](CCCCC(=O)O)SC[C@@H]1N` [diaminobiotin], the “inhibition of biotin uptake” value in series [4] is reported as “very weak”.

As for “B8-PEG-fMLF1.1: 8-arm branched amino-PEG with on average 1.1 fMLF residues per polymer”, the Kd worked out at 209 nM in series [1] (setting [8]) and 190 nM in series [1] (setting [9]). Further, the calcium flux entry in series [2] (even at 100 nM polymer) is on record as “virtually no flux of calcium”.

Regarding `C[C@@H]1NC(=O)N[C@@H]1CCCCCC(=O)O` [desthiobiotin], in series [3], the “inhibition of RI-K(biotin)-Tat9 uptake” value is “significantly inhibited; also recorded: significantly lowered (p<0.001)”, the “inhibition of biotin-PEG-3400 uptake” value is given as “significantly (p<0.01) inhibited” and the “inhibition of PEG:(RI-K(biotin)-Tat9)8 uptake” value is “significantly lower (p<0.05)”. Also, in series [4], the “inhibition of biotin uptake” value is recorded as “inhibited the uptake of biotin significantly”.

Consider `OC[C@@H](O)[C@@H](O)[C@H](O)[C@H](O)CO` [mannitol], for which, in series [5], the Papp A→B at 105 min was determined as 2.12 ×10⁻⁶ cm/s. The “absorptive/effective permeability (Pe)” value in series [6] was 1.42 (±0.28)×10^−6 cm/sec.

With “B3-PEG-fMLF3: 3-arm branched amino-PEG fully coupled with fMLF”, the results for the Kd in series [1] (setting [8]) and in series [1] (setting [9]) were 5.7 nM and 1.9 nM, respectively. The “Avidity Activation EC50/Kd” value in series [1] came to 5.05. The EC50 in series [2] was found to be 9.6 nM.

`N=C1N[C@H]2[C@H](CS[C@H]2CCCCC(=O)O)N1` [iminobiotin]: in series [4], the “inhibition of biotin uptake” value is given as “very weak”.

B1: human sodium dependent multivitamin transporter, hSMVT (Homo sapiens) (protein)
chain: MSVGVSTSAPLSPTSGTSVGMSTFSIMDYVVFVLLLVLSLAIGLYHACRGWGRHTVGELLMADRKMGCLPVALSLLATFQSAVAILGVPSEIYRFGTQYWFLGCCYFLGLLIPAHIFIPVFYRLHLTSAYEYLELRFNKTVRVCGTVTFIFQMVIYMGVVLYAPSLALNAVTGFDLWLSVLALGIVCTVYTALGGLKAVIWTDVFQTLVMFLGQLAVIIVGSAKVGGLGRVWAVASQHGRISGFELDPDPFVRHTFWTLAFGGVFMMLSLYGVNQAQVQRYLSSRTEKAAVLSCYAVFPFQQVSLCVGCLIGLVMFAYYQEYPMSIQQAQAAPDQFVLYFVMDLLKGLPGLPGLFIACLFSGSLSTISSAFNSLATVTMEDLIRPWFPEFSEARAIMLSRGLAFGYGLLCLGMAYISSQMGPVLQAAISIFGMVGGPLLGLFCLGMFFPCANPPGAVVGLLAGLVMAFWIGIGSIVTSMGSSMPPSPSNGSSFSLPTNLTVATVTTLMPLTTFSKPTGLQRFYSLSYLWYSAHNSTTVIVVGLIVSLLTGRMRGRSLNPATIYPVLPKLLSLLPLSCQKRLHCRSYGQDHLDTGLFPEKPRNGVLGDSRDKEAMALDGTAYQGSSSTCILQETSL
In the case of B1, the Km in series [7] (other: uptake in CHO/hSMVT cells, 10 min, pH 7.5) was 1.39 (0.59) μM.

B2: SMVT in BBMECs (Bos taurus) (protein)
chain: MSVGLSTATPLPPASDTDVVTSTFSLVDYVVFVLLLVLSLAIGLYHAYRGWGRHSIGQLLLADRKMGCLPVALSLLATFQSAVAILGVPSEIYRFGTQYWFLGCCYFLGLLIPAHVFIPIFYRLHITSAYEYLELRFNKAVRVCGTVTFIFQMVIYMGVVLYAPSLALNAVTGFDLWLSVLTLGIVCTIYTALGGLKAVIWTDVFQTLVMFLGQLAVIIVGSAKVGGLGHVWEVASQHGLISGIELDPDPFVRHTFWTLAFGGVFMMLSLYGVNQAQVQRYLSSRTEKAAVLSCYAVFPCQQVALSMGCLIGLVMFTYYQEYPMSTQQSQAAPDQFVLYFVMDLLRGLPGLPGLFVACLFSGSLSTISSAFNSLATVTMEDLIRPWFPHVSEVRATMLSRIIAFGYGLLCLGMAYISSQMGPVLQAAISIFGMVGGPLLGLFCLGMFFPCANPPGAIVGLLAGLIMAFWIGIGSIVTSMGSGRALSPPNGSSFSLSSNLTAVTMATLMPSTAASKPTGLQRLYSLSYLWYSAHNSTTVIVVGLAVSLLSGGMRGRTVDPRTIYPVLPKLLALLPLSCQKRLPCRAGSQDLSLEACMFPEKMSNGMLRGSRDQVDMAVPEEGPVQPGISPTFILQETSL
With B2, the Km in series [7] (other: BBMECs) was 54.6 µM.

The record behind these values is patent US7740882B2, “Enhanced oral and transcompartmental delivery of therapeutic or diagnostic agents” (priority 2001, dated 2010).
